Assays:
Experiment in all cases: RP-HPLC product quantification, Michaelis-Menten fit
[1] = biological target: sMAT (methionine adenosyltransferase from Sulfolobus solfataricus) (Saccharolobus solfataricus, UniProt Q980S9); type: biochemical; conditions: 65 °C, pH 8.0, 2.5 mM ATP, 5 mM MgCl2, 40 mM KCl
[2] = substrate: Nc1ncnc2c1ncn2[C@@H]1O[C@H](COP(=O)(O)OP(=O)(O)OP(=O)(O)O)[C@@H](O)[C@H]1O; type: biochemical, Saccharolobus solfataricus; conditions: 65 °C, pH 8.0, 2.5 mM L-methionine, 5 mM MgCl2, 40 mM KCl
[3] = substrate: CSCC[C@H](N)C(=O)O; type: biochemical, Saccharolobus solfataricus; conditions: 65 °C, pH 8.0, 2.5 mM ATP, 5 mM MgCl2, 40 mM KCl

## CCSCC[C@H](N)C(=O)O [L-ethionine, (2S)-2-amino-4-(ethylsulfanyl)butanoic acid]
[1]
  Km: 7 ± 1.6 µM

B1: sMAT (methionine adenosyltransferase from Sulfolobus solfataricus) (Saccharolobus solfataricus P2) (protein)
chain: MRNINVQLNPLSDIEKLQVELVERKGLGHPDYIADAVAEEASRKLSLYYLKKYGVILHHNLDKTLVVGGQATPRFKGGDIIQPIYIIVAGRATTEVKTESGIDQIPVGTIIIESVKEWIRNNFRYLDAERHVIVDYKIGKGSSDLVGIFEASKRVPLSNDTSFGVGFAPLTKLEKLVYETERHLNSKQFKAKLPEVGEDIKVMGLRRGNEVDLTIAMATISELIEDVNHYINVKEQVRNQILDLASKIAPGYNVRVYVNTGDKIDKNILYLTVTGTSAEHGDDGMTGRGNRGVGLITPMRPMSLEATAGKNPVNHVGKLYNVLANLIANKIAQEVKDVKFSQVQVLGQIGRPIDDPLIANVDVITYDGKLTDETKNEISGIVDEMLSSFNKLTELILEGKATLF
[2]
  Km: 0.0145 ± 0.0025 mM
  kcat: 0.0468 ± 0.00133 s⁻¹
  kcat/Km: 3230 ± 533 M⁻¹ s⁻¹
[3]
  Km: 2.8 ± 0.7 µM
  kcat: 0.0487 ± 0.00117 s⁻¹
  kcat/Km: 17400 ± 1670 M⁻¹ s⁻¹

Source: publication PMC4169312 (The FEBS journal, 2014)
